Patent US20220306695A1, “COMPSTATIN ANALOGUES AND THEIR MEDICAL USES” (priority 2019, published 2022)
Positions of bridges follow the written chain, without caps; N, C: chain ends. Non-standard residues stand in square brackets, D forms with d. Nva = CCC[C@H](N)C(=O)O; Sar = CNCC(=O)O

B1: Compound J (peptide)
peptide: Ac-ICVWQDWGEHRCTEGE-NH2
modifications: disulfide 2-12
SMILES: CC[C@H](C)[C@H](NC(C)=O)C(=O)N[C@H]1CSSC[C@@H](C(=O)N[C@H](C(=O)N[C@@H](CCC(=O)O)C(=O)NCC(=O)N[C@@H](CCC(=O)O)C(N)=O)[C@@H](C)O)NC(=O)[C@H](CCCNC(=N)N)NC(=O)[C@H](Cc2c[nH]cn2)NC(=O)[C@H](CCC(=O)O)NC(=O)CNC(=O)[C@H](Cc2c[nH]c3ccccc23)NC(=O)[C@H](CC(=O)O)NC(=O)[C@H](CCC(N)=O)NC(=O)[C@H](Cc2c[nH]c3ccccc23)NC(=O)[C@H](C(C)C)NC1=O
B2: Compound 28 (peptide)
peptide: Ac-EGSAICIWQDWGEHRC[Sar]E-NH2
modifications: disulfide 6-16
SMILES: CC[C@H](C)[C@H](NC(=O)[C@H](C)NC(=O)[C@H](CO)NC(=O)CNC(=O)[C@H](CCC(=O)O)NC(C)=O)C(=O)N[C@H]1CSSC[C@@H](C(=O)N(C)CC(=O)N[C@@H](CCC(=O)O)C(N)=O)NC(=O)[C@H](CCCNC(=N)N)NC(=O)[C@H](Cc2c[nH]cn2)NC(=O)[C@H](CCC(=O)O)NC(=O)CNC(=O)[C@H](Cc2c[nH]c3ccccc23)NC(=O)[C@H](CC(=O)O)NC(=O)[C@H](CCC(N)=O)NC(=O)[C@H](Cc2c[nH]c3ccccc23)NC(=O)[C@H]([C@@H](C)CC)NC1=O
B3: Compound 3 (peptide)
peptide: Ac-ESSAICIWQDWGEHRCT-NH2
modifications: disulfide 6-16
SMILES: CC[C@H](C)[C@H](NC(=O)[C@H](C)NC(=O)[C@H](CO)NC(=O)[C@H](CO)NC(=O)[C@H](CCC(=O)O)NC(C)=O)C(=O)N[C@H]1CSSC[C@@H](C(=O)N[C@H](C(N)=O)[C@@H](C)O)NC(=O)[C@H](CCCNC(=N)N)NC(=O)[C@H](Cc2c[nH]cn2)NC(=O)[C@H](CCC(=O)O)NC(=O)CNC(=O)[C@H](Cc2c[nH]c3ccccc23)NC(=O)[C@H](CC(=O)O)NC(=O)[C@H](CCC(N)=O)NC(=O)[C@H](Cc2c[nH]c3ccccc23)NC(=O)[C@H]([C@@H](C)CC)NC1=O
B4: Ac-IC(1)XWQDWGEHRC(1)T-NH2 with Norvaline at position 3 (peptide)
peptide: Ac-IC[Nva]WQDWGEHRCT-NH2
modifications: disulfide 2-12
SMILES: CCC[C@@H]1NC(=O)[C@@H](NC(=O)[C@@H](NC(C)=O)[C@@H](C)CC)CSSC[C@@H](C(=O)N[C@H](C(N)=O)[C@@H](C)O)NC(=O)[C@H](CCCNC(=N)N)NC(=O)[C@H](Cc2c[nH]cn2)NC(=O)[C@H](CCC(=O)O)NC(=O)CNC(=O)[C@H](Cc2c[nH]c3ccccc23)NC(=O)[C@H](CC(=O)O)NC(=O)[C@H](CCC(N)=O)NC(=O)[C@H](Cc2c[nH]c3ccccc23)NC1=O
B5: Compound 15 (peptide)
peptide: Ac-ICIWQDWGEHRCTGAES-NH2
modifications: disulfide 2-12
SMILES: CC[C@H](C)[C@H](NC(C)=O)C(=O)N[C@H]1CSSC[C@@H](C(=O)N[C@H](C(=O)NCC(=O)N[C@@H](C)C(=O)N[C@@H](CCC(=O)O)C(=O)N[C@@H](CO)C(N)=O)[C@@H](C)O)NC(=O)[C@H](CCCNC(=N)N)NC(=O)[C@H](Cc2c[nH]cn2)NC(=O)[C@H](CCC(=O)O)NC(=O)CNC(=O)[C@H](Cc2c[nH]c3ccccc23)NC(=O)[C@H](CC(=O)O)NC(=O)[C@H](CCC(N)=O)NC(=O)[C@H](Cc2c[nH]c3ccccc23)NC(=O)[C@H]([C@@H](C)CC)NC1=O
B6: Compound 19 (peptide)
peptide: Ac-ICIWQDWGAHSCT-NH2
modifications: disulfide 2-12
SMILES: CC[C@H](C)[C@H](NC(C)=O)C(=O)N[C@H]1CSSC[C@@H](C(=O)N[C@H](C(N)=O)[C@@H](C)O)NC(=O)[C@H](CO)NC(=O)[C@H](Cc2c[nH]cn2)NC(=O)[C@H](C)NC(=O)CNC(=O)[C@H](Cc2c[nH]c3ccccc23)NC(=O)[C@H](CC(=O)O)NC(=O)[C@H](CCC(N)=O)NC(=O)[C@H](Cc2c[nH]c3ccccc23)NC(=O)[C@H]([C@@H](C)CC)NC1=O
B7: Compound 24 (peptide)
peptide: Ac-ICIWQDWGEHRCTEGE-NH2
modifications: disulfide 2-12
SMILES: CC[C@H](C)[C@H](NC(C)=O)C(=O)N[C@H]1CSSC[C@@H](C(=O)N[C@H](C(=O)N[C@@H](CCC(=O)O)C(=O)NCC(=O)N[C@@H](CCC(=O)O)C(N)=O)[C@@H](C)O)NC(=O)[C@H](CCCNC(=N)N)NC(=O)[C@H](Cc2c[nH]cn2)NC(=O)[C@H](CCC(=O)O)NC(=O)CNC(=O)[C@H](Cc2c[nH]c3ccccc23)NC(=O)[C@H](CC(=O)O)NC(=O)[C@H](CCC(N)=O)NC(=O)[C@H](Cc2c[nH]c3ccccc23)NC(=O)[C@H]([C@@H](C)CC)NC1=O
notes: also called Comp No 24
B8: Compound 6 (peptide)
peptide: Ac-ICIWQDWGSHRCT-NH2
modifications: disulfide 2-12
SMILES: CC[C@H](C)[C@H](NC(C)=O)C(=O)N[C@H]1CSSC[C@@H](C(=O)N[C@H](C(N)=O)[C@@H](C)O)NC(=O)[C@H](CCCNC(=N)N)NC(=O)[C@H](Cc2c[nH]cn2)NC(=O)[C@H](CO)NC(=O)CNC(=O)[C@H](Cc2c[nH]c3ccccc23)NC(=O)[C@H](CC(=O)O)NC(=O)[C@H](CCC(N)=O)NC(=O)[C@H](Cc2c[nH]c3ccccc23)NC(=O)[C@H]([C@@H](C)CC)NC1=O
B9: Compound 20 (peptide)
peptide: Ac-ICIWQDWGEHSCT-NH2
modifications: disulfide 2-12
SMILES: CC[C@H](C)[C@H](NC(C)=O)C(=O)N[C@H]1CSSC[C@@H](C(=O)N[C@H](C(N)=O)[C@@H](C)O)NC(=O)[C@H](CO)NC(=O)[C@H](Cc2c[nH]cn2)NC(=O)[C@H](CCC(=O)O)NC(=O)CNC(=O)[C@H](Cc2c[nH]c3ccccc23)NC(=O)[C@H](CC(=O)O)NC(=O)[C@H](CCC(N)=O)NC(=O)[C@H](Cc2c[nH]c3ccccc23)NC(=O)[C@H]([C@@H](C)CC)NC1=O
B10: Compound 21 (peptide)
peptide: Ac-ICIWQDWGEHRCS-NH2
modifications: disulfide 2-12
SMILES: CC[C@H](C)[C@H](NC(C)=O)C(=O)N[C@H]1CSSC[C@@H](C(=O)N[C@@H](CO)C(N)=O)NC(=O)[C@H](CCCNC(=N)N)NC(=O)[C@H](Cc2c[nH]cn2)NC(=O)[C@H](CCC(=O)O)NC(=O)CNC(=O)[C@H](Cc2c[nH]c3ccccc23)NC(=O)[C@H](CC(=O)O)NC(=O)[C@H](CCC(N)=O)NC(=O)[C@H](Cc2c[nH]c3ccccc23)NC(=O)[C@H]([C@@H](C)CC)NC1=O

Tests used:
Human C3 [1] = target: T1, Human C3 (human, UniProt P01024 23-1663); assay: cell-based or functional assay
Human C3 [2] = target: T1, Human C3; assay: SPR, C3 immobilised
Summary of the method: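 Human C3 amine-coupled to a CM5 chip at ~3000 RU; peptides injected multi-cycle at 5-8 concentrations for 60-120 s in Tris pH 7.4, 150 mM NaCl, 0.05% Tween20 at 25° C, dissociation up to 10 min.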

Human C3 [3] = target: T1, Human C3; assay: cell-based or functional assay; remark: listed apart in the source
Human C3 [4] = target: T1, Human C3; assay: cell-based or functional assay; remark: listed apart in the source

T1 sequence (P01024 23-1663 limits assumed): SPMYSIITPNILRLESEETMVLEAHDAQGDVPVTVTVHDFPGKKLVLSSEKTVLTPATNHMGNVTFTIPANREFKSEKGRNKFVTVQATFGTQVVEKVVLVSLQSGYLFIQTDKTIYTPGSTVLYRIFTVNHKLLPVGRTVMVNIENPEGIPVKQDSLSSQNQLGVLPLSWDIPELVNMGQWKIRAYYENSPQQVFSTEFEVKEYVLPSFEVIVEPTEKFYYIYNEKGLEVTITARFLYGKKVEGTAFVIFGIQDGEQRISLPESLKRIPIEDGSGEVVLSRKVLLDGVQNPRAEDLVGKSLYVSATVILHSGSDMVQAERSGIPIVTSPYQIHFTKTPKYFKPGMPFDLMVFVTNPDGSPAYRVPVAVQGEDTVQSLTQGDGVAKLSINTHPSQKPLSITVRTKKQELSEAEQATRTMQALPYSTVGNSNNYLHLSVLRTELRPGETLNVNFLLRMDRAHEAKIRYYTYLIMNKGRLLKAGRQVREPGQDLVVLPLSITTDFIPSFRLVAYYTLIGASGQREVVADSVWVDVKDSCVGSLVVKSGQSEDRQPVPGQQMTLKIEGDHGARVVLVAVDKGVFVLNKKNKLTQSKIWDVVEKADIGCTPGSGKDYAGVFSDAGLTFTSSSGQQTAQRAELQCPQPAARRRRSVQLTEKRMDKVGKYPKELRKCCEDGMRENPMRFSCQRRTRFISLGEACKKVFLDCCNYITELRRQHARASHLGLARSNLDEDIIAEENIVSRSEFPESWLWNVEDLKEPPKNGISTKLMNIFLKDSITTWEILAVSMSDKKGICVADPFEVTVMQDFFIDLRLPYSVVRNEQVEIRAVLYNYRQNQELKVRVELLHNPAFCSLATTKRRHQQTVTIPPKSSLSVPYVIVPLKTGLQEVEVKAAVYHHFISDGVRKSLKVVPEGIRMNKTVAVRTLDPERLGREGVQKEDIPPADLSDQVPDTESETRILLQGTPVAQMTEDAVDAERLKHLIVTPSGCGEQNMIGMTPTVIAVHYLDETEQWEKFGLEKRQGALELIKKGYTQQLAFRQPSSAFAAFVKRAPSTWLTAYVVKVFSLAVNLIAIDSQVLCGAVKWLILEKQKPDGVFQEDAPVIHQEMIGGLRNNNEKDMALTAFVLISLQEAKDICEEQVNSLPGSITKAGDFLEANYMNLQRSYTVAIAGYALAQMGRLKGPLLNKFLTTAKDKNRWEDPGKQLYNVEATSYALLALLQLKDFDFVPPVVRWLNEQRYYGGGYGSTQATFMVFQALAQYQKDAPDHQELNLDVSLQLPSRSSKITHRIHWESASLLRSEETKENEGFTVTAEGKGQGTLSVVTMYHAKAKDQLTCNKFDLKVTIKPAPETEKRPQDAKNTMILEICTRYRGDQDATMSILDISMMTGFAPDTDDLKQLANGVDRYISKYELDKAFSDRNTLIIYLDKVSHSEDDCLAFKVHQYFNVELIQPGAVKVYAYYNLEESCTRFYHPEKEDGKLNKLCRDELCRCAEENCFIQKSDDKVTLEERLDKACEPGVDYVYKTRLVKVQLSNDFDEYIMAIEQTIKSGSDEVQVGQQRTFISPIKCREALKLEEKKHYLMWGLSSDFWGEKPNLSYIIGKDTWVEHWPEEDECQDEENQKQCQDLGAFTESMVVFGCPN

Binder	CP hemolysis IC50 (Human C3 [1]) [nM]	Kd (Human C3 [2]) [nM]	IC50[nM], inhibition of hemolysis (Human C3 [3]) [nM]	IC50, CP hemolysis (Human C3 [4]) [nM]
B1	240			
B2	88	44	< 100	
B3	69		< 100	
B4				> 1000
B5	47		< 100	
B6	140		< 250	
B7	90		< 100	
B8	140		< 250	
B9	59	37	< 100	
B10	77		< 100	
